Source: paper PMC7412794
“Also recorded” adds a separate entry of the source.

Experiments:
[1] = invMM kinetics, 12 g/L Avicel; conditions: glycan lost; control: untreated TrCel7A CD (no linker, no CBM)
[2] = DSC; conditions: glycan lost
[3] = pNP-Lac activity after 1 h at Tm−5 °C; conditions: glycan lost
[4] = convMM kinetics, 50 °C, 1 h, reducing ends; conditions: glycan lost; control: WTAo
[5] = invMM kinetics (enzyme excess), 50 °C, 1 h; conditions: glycan lost; control: WTAo

B1: Trichoderma reesei Cel7A (TrCel7A): endoglycosidase H (protein)
parent chain: MYRKLAVISAFLATARAQSACTLQSETHPPLTWQKCSSGGTCTQQTGSVVIDANWRWTHATNSSTNCYDGNTWSSTLCPDNETCAKNCCLDGAAYASTYGVTTSGNSLSIGFVTQSAQKNVGARLYLMASDTTYQEFTLLGNEFSFDVDVSQLPCGLNGALYFVSMDADGGVSKYPTNTAGAKYGTGYCDSQCPRDLKFINGQANVEGWEPSSNNANTGIGGHGSCCSEMDIWEANSISEALTPHPCTTVGQEICEGDGCGGTYSDNRYGGTCDPDGCDWNPYRLGNTSFYGPGSSFTLDTTKKLTVVTQFETSGAINRYYVQNGVTFQQPNAELGSYSGNELNDDYCTAEEAEFGGSSFSDKGGLTQFKKATSGGMVLVMSLWDDYYANMLWLDSTYPTNETSSTPGAVRGSCSTSSGVPAQVESQSPNAKVTFSNIKFGPIGSTGNPSGGNPPGGNRGTTTTRRPATTTGSSPGPTQSHYGQCGGIGYSGPTVCASGTTCQVLNPYYSQCL
[1]
  enzymatic_activity: increases

B2: Trichoderma reesei Cel7A (TrCel7A): N270QAo (protein)
parent chain: B1 parent chain
[2]; control: WTAo
  stability_or_folding, Tm: decreases, 66.9 vs 67.9
[3]; control: WTAo
  stability_or_folding, other: residual activity: no change, 60 ± 3 vs 57 ± 1

B3: Trichoderma reesei Cel7A (TrCel7A): ΔN-glycAo (protein)
parent chain: B1 parent chain
[2]; control: WTAo
  stability_or_folding, Tm: decreases, 65.0 vs 67.9
[3]; control: WTAo
  stability_or_folding, other: residual activity: decreases, 41 ± 2 vs 57 ± 1

B4: Trichoderma reesei Cel7A (TrCel7A): ΔN-glycTr (protein)
parent chain: B1 parent chain
[2]; control: WTTr
  stability_or_folding, Tm: decreases, 65.2 vs 67.9
[3]; control: WTTr
  stability_or_folding, other: residual activity: no change, 44 ± 1 vs 45 ± 2

B5: Trichoderma reesei Cel7A (TrCel7A): N384QAo (protein)
parent chain: B1 parent chain
[4]
  enzymatic_activity, other: convVmax/E0 (kcat): decreases, 0.34 ± 0.01 vs 0.48 ± 0.02; also recorded: decreases, 1.01 ± 0.03 vs 1.46 ± 0.14
[2]; control: WTAo
  stability_or_folding, Tm: decreases, 66.1 vs 67.9
[3]; control: WTAo
  stability_or_folding, other: residual activity: no change, 57 ± 3 vs 57 ± 1

B6: Trichoderma reesei Cel7A (TrCel7A): N45QAo (protein)
parent chain: B1 parent chain
[4]
  enzymatic_activity, other: convVmax/E0 (kcat): no change, 1.33 ± 0.09 vs 1.46 ± 0.14
[2]; control: WTAo
  stability_or_folding, Tm: decreases, 67.4 vs 67.9
[3]; control: WTAo
  stability_or_folding, other: residual activity: decreases, 38 ± 2 vs 57 ± 1
[5]
  enzymatic_activity, other: invVmax/S0: increases, 0.52 ± 0.02 vs 0.45 ± 0.02
